Source: the RNAGym collection of RNA variant scans (doi:10.1073/pnas.2313332121)
Fewer inactive variants are shown than the library holds.

B1: TPR 5TU (parent)
chain: GGAUCUUCUCGAUCUAACAAAAAAGACAAAUCUGCCACAAAGCUUGAGAGCAUCUUCGGAUGCAGAGGCGGCAGCCUUCGGUGGCGCGAUAGCGCCAACGUUCUCAACUAUGACACGCAAAACGCGUGCUCCGUUGAAUGGAGUUUAUCAUG

Variants of: B1
Assay: polymerase ribozyme fitness, log enrichment relative to wild type (log ratio); higher = more active; in vitro selection for triplet polymerase activity
Procedure, shortened: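 Each subunit of a heterodimeric triplet polymerase ribozyme was mutagenized into a library by PCR, transcribed, and subjected to one round of in vitro selection, run in triplicate. Libraries were annealed with a biotinylated primer, the partner subunit and triplets, incubated frozen at −7 °C, and extended constructs were gel-excised, captured on streptavidin beads and recovered by RT-PCR. Input and output libraries were sequenced on Illumina, keeping genotypes with ≥10 input reads and ≥1 read per output. Fitness is log base 2 of genotype enrichment divided by wild-type enrichment, from inverse-variance-weighted replicate averages.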

Variant | polymerase ribozyme fitness (log ratio)
A89G G94A G100C | ≤ -4.2
G92A U101G C149U | -3.56
U90G G94U A106U | ≤ -4.2
G92A C108U | ≤ -4.2
C93U C99U | -2.8
C93U C99A | -3.72
C93U C99G | -1.97
G92U A138C | -3.95
G92U U104G C132U | -2.5
C93A A150G | -3.51
C93A C105U | -2.67
A89U A97G U134A G141C | -3.84
G92U C93U A138C | ≤ -4.2
C93A A106C A120U | -2.8
A91U A113C | ≤ -4.2
A91C U139G | ≤ -4.2
G92C G124U G152U | -3.69
C93A U130A | ≤ -4.2
U90G A97G C114U U139G | ≤ -4.2
C93G C96U | -3.61
C93A C103G | -3.88

Variant | polymerase ribozyme fitness (log ratio)
G92U G94C A106G C123A U145C | -1.97
C93U A106C | -1.75
A89U C93U C125U U127A A142U C149U | ≤ -4.2
G92U G124U G141C | -0.283
C93G A119C | -3.47
A91C A120G G126A | ≤ -4.2
C93A G117U | -1.92
A89U G92C G94U G141A | -3.94
C93A U102C C105A C125G G143U U144A | ≤ -4.2
G92C A142U | -2.07
C93G A97U U145G | ≤ -4.2
A91G | -2.77
A91C | ≤ -4.2
A91U A115U C118A C131G A138G | ≤ -4.2
A89U C93U | -1.6
A89U C93G | -3.68
G92A G124C | -3.03
A91G U104G A115C | -4.06
A91G C116G | -1.65
C93U A97U | -2.14
C93U A97C | -0.557

Variant | polymerase ribozyme fitness (log ratio)
G92A A115C | -3.48
U90G G140C | ≤ -4.2
A91G A121U | -3.01
A89U A91U C93U C95A | ≤ -4.2
A91G G92U | -2.31
G92A C99U G117U U151G | ≤ -4.2
U90A C125G A147C U148C | -3.99
G92U U101G | 0.0893
A91U C108A C114A C129A U146A | ≤ -4.2
G92C U101G | -0.874
A89U U148G | -3.92
C93A U148G G152U | ≤ -4.2
C93U A150G | -1.93
A91C G126A | -4.03
A89U C123U | 0.89
A91G C96U A106G | -2.5
C93G A150G | -4.14
A91G C95G | -3.67
C93G C108U | -3.94
C93G C108G | -3.9
C93A A98G | -1.81

Variant | polymerase ribozyme fitness (log ratio)
G92U A107U | -3.2
A91G A98U | -3.95
A91U G92U C132A | ≤ -4.2
G92C U139A | -4.2
C93G C149U | -4.08
A91U A106U G117A G136U | ≤ -4.2
A89G U146G C149G | -4.1
C93A A138G G143C | -3.66
C93U C99G G136A | -0.753
C93G C123U G141U | -2.27
A91U A142U | -3.67
G92U C99U U144G | 0.0398
A91G C118U A121U A122U G124A | -3.56
G92U G112C | -2.95
C93U C118A C125A U139C | -4.16
U90A C95U A121U U127A | ≤ -4.2
G92A G136C | -3.83
C93A G136U | -4.17
C93A G136A | -1.14
A91U G141A | -4.05
